Values of other authors as cited in paper PMC5340040 (BMC Biochemistry, 2017).

Tested on: actin
Conditions: ref [10]
Description: Actin is a negatively charged structural protein and the most abundant protein in the eukaryotic cells. Actin, released from dead cells, is also present in the saliva. Actin has important roles in cytoskeleton formation, cell division, motility, adhesion, signaling and more. Actin exists in either monomer globular (G) or polymer filament (F) form, which are interconvertible into each other.

B1: eEF1A: eukaryotic elongation factor 1 alpha (protein, UniProt P02994 2-458, looked up)
Elongation factor 1-alpha: GKEKSHINVVVIGHVDSGKSTTTGHLIYKCGGIDKRTIEKFEKEAAELGKGSFKYAWVLDKLKAERERGITIDIALWKFETPKYQVTVIDAPGHRDFIKNMITGTSQADCAILIIAGGVGEFEAGISKDGQTREHALLAFTLGVRQLIVAVNKMDSVKWDESRFQEIVKETSNFIKKVGYNPKTVPFVPISGWNGDNMIEATTNAPWYKGWEKETKAGVVKGKTLLEAIDAIEQPSRPTDKPLRLPLQDVYKIGGIGTVPVGRVETGVIKPGMVVTFAPAGVTTEVKSVEMHHEQLEQGVPGDNVGFNVKNVSVKEIRRGNVCGDAKNDPPKGCASFNATVIVLNHPGQISAGYSPVLDCHTAHIACRFDELLEKNDRRSGKKLEDHPKFLKSGDAALVKFVPSKPMCVEAFSEYPPLGRFAVRDMRQTVAVGVIKSVDKTEKAAKVTKAAQKAAKK
polymerization and bundling of actin, eEF1A: polymerize G-actin to F actin and bundle F-actin into actin bundles
